T1: BoNT/C1 holotoxin (Clostridium botulinum, UniProt P18640 2-1291)
T1 sequence: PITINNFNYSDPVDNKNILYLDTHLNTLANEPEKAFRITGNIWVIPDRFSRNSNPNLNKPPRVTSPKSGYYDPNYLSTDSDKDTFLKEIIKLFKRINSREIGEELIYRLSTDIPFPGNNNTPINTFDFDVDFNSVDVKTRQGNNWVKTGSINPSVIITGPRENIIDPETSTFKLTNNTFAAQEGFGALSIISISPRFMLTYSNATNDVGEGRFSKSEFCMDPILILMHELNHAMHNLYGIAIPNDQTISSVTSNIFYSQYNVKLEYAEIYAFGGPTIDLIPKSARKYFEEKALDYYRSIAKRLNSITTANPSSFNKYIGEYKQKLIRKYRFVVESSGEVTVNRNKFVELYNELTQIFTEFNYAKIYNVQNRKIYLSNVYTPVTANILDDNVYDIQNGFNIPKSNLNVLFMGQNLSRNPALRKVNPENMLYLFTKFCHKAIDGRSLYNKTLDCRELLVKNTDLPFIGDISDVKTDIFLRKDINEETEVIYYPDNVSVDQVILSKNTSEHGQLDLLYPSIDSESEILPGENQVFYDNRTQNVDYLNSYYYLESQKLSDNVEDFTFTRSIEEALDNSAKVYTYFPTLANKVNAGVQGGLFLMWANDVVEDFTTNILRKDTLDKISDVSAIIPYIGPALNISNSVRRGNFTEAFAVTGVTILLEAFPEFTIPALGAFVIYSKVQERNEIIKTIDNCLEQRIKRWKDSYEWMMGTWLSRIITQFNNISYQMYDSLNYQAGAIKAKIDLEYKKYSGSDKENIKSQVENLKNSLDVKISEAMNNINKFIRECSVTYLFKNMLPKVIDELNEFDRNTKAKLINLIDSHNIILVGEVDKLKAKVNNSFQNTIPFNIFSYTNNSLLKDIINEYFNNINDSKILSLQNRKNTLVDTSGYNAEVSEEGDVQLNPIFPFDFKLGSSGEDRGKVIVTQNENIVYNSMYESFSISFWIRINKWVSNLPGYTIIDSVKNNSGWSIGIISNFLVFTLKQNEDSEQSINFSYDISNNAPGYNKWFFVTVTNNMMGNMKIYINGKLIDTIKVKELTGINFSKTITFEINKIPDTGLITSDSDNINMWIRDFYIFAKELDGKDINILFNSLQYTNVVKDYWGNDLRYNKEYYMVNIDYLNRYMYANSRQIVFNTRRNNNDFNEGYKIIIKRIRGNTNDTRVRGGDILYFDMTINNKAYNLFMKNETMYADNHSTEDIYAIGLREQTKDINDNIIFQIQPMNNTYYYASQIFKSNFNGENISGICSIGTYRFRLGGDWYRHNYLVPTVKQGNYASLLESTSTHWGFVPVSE

T2: BoNT/D (Clostridium botulinum, UniProt P19321 2-1276)
T2 sequence: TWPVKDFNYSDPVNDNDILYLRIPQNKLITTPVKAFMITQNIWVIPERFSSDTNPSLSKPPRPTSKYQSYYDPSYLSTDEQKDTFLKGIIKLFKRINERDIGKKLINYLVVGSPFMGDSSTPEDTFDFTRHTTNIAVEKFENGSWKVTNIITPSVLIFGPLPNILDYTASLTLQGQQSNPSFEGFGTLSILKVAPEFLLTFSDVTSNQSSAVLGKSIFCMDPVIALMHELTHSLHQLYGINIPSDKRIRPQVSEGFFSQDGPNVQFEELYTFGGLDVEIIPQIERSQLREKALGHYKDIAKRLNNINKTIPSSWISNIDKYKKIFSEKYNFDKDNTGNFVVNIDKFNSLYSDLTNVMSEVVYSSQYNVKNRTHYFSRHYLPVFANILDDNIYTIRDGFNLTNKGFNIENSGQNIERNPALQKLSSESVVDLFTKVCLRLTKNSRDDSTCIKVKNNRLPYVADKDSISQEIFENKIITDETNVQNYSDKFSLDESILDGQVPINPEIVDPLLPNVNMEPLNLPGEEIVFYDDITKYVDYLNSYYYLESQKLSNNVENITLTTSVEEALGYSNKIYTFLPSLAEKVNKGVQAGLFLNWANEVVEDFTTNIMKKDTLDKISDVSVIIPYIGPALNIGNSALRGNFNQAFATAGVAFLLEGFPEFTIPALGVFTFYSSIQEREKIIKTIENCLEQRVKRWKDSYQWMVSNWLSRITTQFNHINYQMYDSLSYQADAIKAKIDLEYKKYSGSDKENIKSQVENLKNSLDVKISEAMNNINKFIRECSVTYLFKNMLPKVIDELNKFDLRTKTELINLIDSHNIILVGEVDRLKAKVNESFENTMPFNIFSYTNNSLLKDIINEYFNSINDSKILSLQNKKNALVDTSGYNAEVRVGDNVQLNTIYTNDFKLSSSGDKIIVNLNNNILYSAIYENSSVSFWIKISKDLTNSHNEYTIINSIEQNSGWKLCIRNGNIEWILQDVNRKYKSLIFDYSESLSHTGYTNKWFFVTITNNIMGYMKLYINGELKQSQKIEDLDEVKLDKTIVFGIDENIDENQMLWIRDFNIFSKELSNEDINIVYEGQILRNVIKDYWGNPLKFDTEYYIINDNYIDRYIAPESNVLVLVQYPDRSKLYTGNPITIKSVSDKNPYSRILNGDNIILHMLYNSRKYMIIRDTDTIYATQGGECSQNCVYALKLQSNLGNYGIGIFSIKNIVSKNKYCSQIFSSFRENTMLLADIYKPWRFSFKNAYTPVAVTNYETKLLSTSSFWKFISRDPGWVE


Legend:
BoNT/C1 holotoxin = biological target: T1, BoNT/C1 holotoxin; assay: yeast scFv FACS
BoNT/D = biological target: T2, BoNT/D; assay: yeast scFv FACS

Binder	binding result (BoNT/C1 holotoxin)	binding result (BoNT/D)
8DC7 scFv (scFv, V domains shown, human) VH: QVQLVQSGGRLVRPGGSLRLSCAASGFVFSNYGMHWVRQAPGKGLEWVAFLTHGGTNKYYSDSVKGRLTISRDNAKSTLFLEVNSLRVEDTAIYYCVKEGQLDSKYYFDSWGQGTLVTVSS VL: EIVLTQSPSSLSASVGDRVTITCRASQSISSYLAWYQQKPGKAPELLIYAASTLQSGVPSRFSGSGSGTDFTLTISSVQPEDFATYYCQQSYSTPFTFGQGTKVEIK	no binding (tested: ~1 µM)	binds
8DC8.6 scFv (scFv, V domains shown, human) VH: QVQLQQSGPGLVKPSETLSLTCTVSGGSISSAGYSWSWIRQSPGKGLECLGYIYQTGSTFYNLSLKGRVTMSLDRSKNQISLRLTSVVAADTAVYYCARVVGVYPGWFDSWGQGTLVTVSS VL: DIQMTQSPSSLSASVGDRVTITCRASQGVSTDLAWYQQKPGRAPKLLIYRASSLQSGVPSRFSGSGSGTDFTLTISSLQPDDLATYYCQHYESYSPWTFGQGTQGEIK	no binding (tested: ~1 µM)	binds
8DC10 scFv (scFv, V domains shown, human) VH: QVQLVQSGAEAKKPGASVKLSCQASGYTFTGYAIHWVRQAPGQRLEWLGWINCVNGNTKYSPKLPGRVTITRDTSATTAYLELNSLTSEDTAVYYCARSMLVAARVYYYYGMDVWGQGTMVTVSS VL: not shown	no binding (tested: ~1 µM)	binds
8DC11 scFv (scFv, V domains shown, human) VH: QVQLVESGPGLVKPSQTLSLSCTVSGGSVNHYYWNWIRQPPGKGLEWIGYIFYNGRTNYNPSLKSRVTMSVDTSKNQISLKLRSVTAADTAVYYCAREGARGYCSSTSCHDAFDIWGRGTLVTVSS VL: EIVLTQSPSFLSASVGDRVTITCRASQGIRNDLAWFQQKPGKAPKLLIYATSTLQSGVPSRFSGSGSGTDFTLTISSLQPEDFADYYCQQAASFPLTFGGGTKVDIK	no binding (tested: ~1 µM)	binds
8DC12 scFv (scFv, V domains shown, human) VH: QVQLVQSGGGVVQPGRSLRLSCAASGFTFSSYGMHWVRQAPGKGLEWVAAISYDGSNKYYADSVKGRFTISRDNSKNTLYLQMNSLRAEDTAVYYCAKGEHFVVVTAFATWGQGTLVTVSS VL: DIVMTQSPSFLSASIGDRVTITCRASQSISNWLAWYQQKPGKAPKVLVYKASSLENGVPSRFSGSGSGTDFTLTITSLQPDDFATYYCQQYNAYPLTFGGGTKVEIK	no binding (tested: ~1 µM)	binds
8DC13 scFv (scFv, V domains shown, human) VH: QVQLVQSGAEVKKPGASVKVSCKASGYTFTGYYIHWVRQAPGQGLEWMGRINPNSGGANYAHKFQGRVTMTRDTSSNTAYMEVSRLKSDDTAVYYCARRRAVANLDYHYYGMDVWGQGTTVTVSS VL: DIVMTQSPSTLSASVGARVTITCRASQNINTYLNWYHQKPGKAPKLLIYAASSLQSGVPSRFSGSGSGTDFTLTISSLQPEDFATYYCQQSYSTPHTFGGGTKLEIK	no binding (tested: ~1 µM)	binds
8DC14 scFv (scFv, V domains shown, human) VH: QVQLVQSGGGVVQPGRSLRLSCVASGFTFSSYTMHWVRQAPGEGLEWVAGISNDGRNQYYSDSVKGRATISRDNSKDTLYLQMHSLRAEDTAVYYCAKANYHFILATTFHSWGQGTLVTVSS VL: DIVMTQSPSSVSASVGDRVTITCRASQGISSWLAWYQQKPGKAPKLLIYAASSLQSGVPSRFSGSGSGTDFTLTISRLQPEDVATYYCQRYNSLPFTFGGGTKLEIK	no binding (tested: ~1 µM)	binds
